Data as given in article PMC10071816 (bioRxiv, 2023).

Legend:
[1] = molecular target: CCT1, subunit of human TRiC (human, UniProt P17987 1-556); assay: cross-linking
[2] = molecular target: T1, CCT2, subunit of human TRiC (human, UniProt P78371 1-535); assay: cross-linking
T1 sequence: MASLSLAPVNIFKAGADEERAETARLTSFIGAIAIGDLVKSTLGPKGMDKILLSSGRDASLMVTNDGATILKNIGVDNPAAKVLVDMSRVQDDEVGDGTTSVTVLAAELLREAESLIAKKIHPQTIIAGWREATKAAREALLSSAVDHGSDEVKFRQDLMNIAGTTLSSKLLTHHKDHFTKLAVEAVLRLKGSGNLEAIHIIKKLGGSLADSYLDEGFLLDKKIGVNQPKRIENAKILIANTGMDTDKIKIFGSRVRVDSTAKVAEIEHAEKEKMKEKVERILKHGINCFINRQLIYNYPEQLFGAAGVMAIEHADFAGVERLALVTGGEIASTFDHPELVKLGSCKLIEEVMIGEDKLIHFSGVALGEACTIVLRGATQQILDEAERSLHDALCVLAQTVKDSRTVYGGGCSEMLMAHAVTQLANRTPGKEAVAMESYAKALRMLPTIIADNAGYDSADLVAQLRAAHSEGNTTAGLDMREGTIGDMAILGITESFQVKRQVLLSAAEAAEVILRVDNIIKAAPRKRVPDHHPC

[3] = molecular target: CCT5, subunit of human TRiC (human, UniProt P48643 1-541); assay: cryo-EM structure
Chain of CCT5, subunit of human TRiC (P48643 whole entry): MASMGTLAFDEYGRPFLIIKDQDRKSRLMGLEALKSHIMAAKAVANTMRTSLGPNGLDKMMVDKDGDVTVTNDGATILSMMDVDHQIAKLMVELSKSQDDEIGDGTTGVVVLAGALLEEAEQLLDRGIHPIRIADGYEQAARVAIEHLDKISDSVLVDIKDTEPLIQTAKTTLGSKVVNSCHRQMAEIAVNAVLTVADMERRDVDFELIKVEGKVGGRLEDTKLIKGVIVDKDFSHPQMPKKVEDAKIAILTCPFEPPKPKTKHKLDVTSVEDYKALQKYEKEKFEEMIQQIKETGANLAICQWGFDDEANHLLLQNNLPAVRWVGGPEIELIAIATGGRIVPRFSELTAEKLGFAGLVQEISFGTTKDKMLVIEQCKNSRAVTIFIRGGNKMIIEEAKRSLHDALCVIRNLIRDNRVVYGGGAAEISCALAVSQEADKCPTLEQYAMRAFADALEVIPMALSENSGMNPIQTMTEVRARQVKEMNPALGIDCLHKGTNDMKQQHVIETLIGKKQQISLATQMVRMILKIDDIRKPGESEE

[4] = molecular target: human chaperonin TCP-1 ring complex (TRiC/CCT) (human) (UniProt P17987); assay: cryo-EM structure

Chain of CCT1, subunit of human TRiC (P17987 whole entry): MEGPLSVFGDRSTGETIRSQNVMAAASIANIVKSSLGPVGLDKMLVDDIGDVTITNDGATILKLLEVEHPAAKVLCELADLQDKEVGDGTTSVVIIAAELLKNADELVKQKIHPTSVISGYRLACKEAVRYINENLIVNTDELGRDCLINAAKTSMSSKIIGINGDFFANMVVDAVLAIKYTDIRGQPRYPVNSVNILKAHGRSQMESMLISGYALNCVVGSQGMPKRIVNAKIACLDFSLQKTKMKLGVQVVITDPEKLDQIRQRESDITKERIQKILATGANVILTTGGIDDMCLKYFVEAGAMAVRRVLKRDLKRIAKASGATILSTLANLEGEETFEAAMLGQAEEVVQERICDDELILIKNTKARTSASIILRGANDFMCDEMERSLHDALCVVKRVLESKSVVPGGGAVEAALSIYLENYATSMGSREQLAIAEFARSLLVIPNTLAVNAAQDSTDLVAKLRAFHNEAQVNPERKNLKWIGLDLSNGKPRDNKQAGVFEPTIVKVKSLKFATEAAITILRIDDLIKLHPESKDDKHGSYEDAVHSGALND

- binding result [1]: binds
- binding result [2]: binds
- binding result [3]: binds
- percent of particles (3D classification) [4]: 22.9%
- percent of particles with PhLP2A in both chambers [4]: 9.5%
- percent of particles with PhLP2A in one chamber [4]: 14%
B1: phosducin-like protein PhLP2A, full length (natural protein)
chain: MQDPNADTEWNDILRKKGILPPKESLKELEEEAEEEQRILQQSVVKTYEDMTLEELEDHEDEFNEEDERAIEMYRRRRLAEWKATKLKNKFGEVLEISGKDYVQEVTKAGEGLWVILHLYKQGIPLCALINQHLSGLARKFPDVKFIKAISTTCIPNYPDRNLPTIFVYLEGDIKAQFIGPLVFGGMNLTRDELEWKLSESGAIMTDLEENPKKPIEDVLLSSVRRSVLMKRDSDSEGD
